For 167 variants, self-cleavage results are on record in the RNAGym collection of RNA variant scans (doi:10.7554/elife.80360).

Sequences and labels used below:
B1: HDV Ribozyme (parent)
chain: GGCCGGCAUGGUCCCAGCCUCCUCGCUGGCGCCGGCUGGGCAACAUUCCGAGGGGACCGUCCCCUCGGUAAUGGCGAAUGGGACCCA

In this data set the parent is B1. Briefly: self-cleavage, relative activity (ratio to wild type); higher = more cleavage; co-transcriptional.
Take C33A G40U: the self-cleavage turned out to be 0.23.

For the variant A16G G74A, the self-cleavage was 0.404.

For C4A C33U, the self-cleavage was found to be 0.104.

As to C24G C64A, the self-cleavage stood at 0.117.

For the variant G5A C7G, the self-cleavage is 0.0875.

For C22A C49U, the self-cleavage amounted to 0.338.

Take G50A G81A: the self-cleavage came out at 0.415.

As to C19G G80U, the self-cleavage is 0.0902.

For A45U G74U, the self-cleavage was 0.305.

C21G C36U: the self-cleavage stood at 0.0326.

For C14U G40C, the self-cleavage amounted to 0.391.

Turning to G53C U65A, the self-cleavage was 0.629.

For G38C G74A, the self-cleavage came out at 0.0936.

Consider G1U G68U, for which the self-cleavage is 0.287.

For the variant C58G G74A, the self-cleavage was found to be 0.499.

Consider A42U G55A, for which the self-cleavage came out at 0.604.

In the case of G2C C62A, the self-cleavage worked out at 0.0462.

In the case of C57A C84A, the self-cleavage is 0.789.

In the case of C21U A77U, the self-cleavage is 0.13.

C33A U72G: the self-cleavage was found to be 0.122.

For the variant C14U G59C, the self-cleavage stood at 1.01.

As to C3U C49U, the self-cleavage stood at 0.762.

Consider G34C A78G, for which the self-cleavage was determined as 0.0755.

In the case of C3U G53U, the self-cleavage was 0.779.

Consider G10C G17U, for which the self-cleavage was found to be 0.494.

Consider G1U G76A, for which the self-cleavage was 0.62.

In the case of U37C A43G, the self-cleavage was found to be 0.332.

Take U27A C75A: the self-cleavage was 0.147.

As for G31U G50C, the self-cleavage was found to be 0.237.

With G73U G76A, the self-cleavage was found to be 0.208.

On to C61G A70U, for which the self-cleavage was 1.04.

With G6U G25U, the self-cleavage was 0.117.

C14U C30U: the self-cleavage turned out to be 0.489.

As for G31U G38U, the self-cleavage came to 0.0944.

Regarding C19G G54C, the self-cleavage came out at 0.0489.

In the case of C36A A51U, the self-cleavage came out at 0.17.

With C22G U23G, the self-cleavage is 0.

As for C7U U12C, the self-cleavage turned out to be 0.237.

As for C18A G73C, the self-cleavage worked out at 0.0396.

G6U C30G: the self-cleavage came to 0.0326.

On to U12A C30U, for which the self-cleavage was determined as 0.0739.

Regarding C4G C19U, the self-cleavage came out at 0.0779.

For the variant G31U U46A, the self-cleavage came out at 0.0755.

A16C G31A: the self-cleavage turned out to be 0.297.

On to C44U A56U, for which the self-cleavage was 0.748.

For the variant U20C U72A, the self-cleavage is 0.123.

As to G31A C58G, the self-cleavage is 0.393.

For the variant G5C C33A, the self-cleavage was 0.26.

On to A16C C64A, for which the self-cleavage came out at 0.895.

With C18A U47A, the self-cleavage was found to be 0.0692.

As for C49U C58A, the self-cleavage turned out to be 1.02.

On to G25C G73A, for which the self-cleavage stood at 0.116.

Regarding U23G U79G, the self-cleavage is 0.192.

G1U U47A: the self-cleavage came out at 0.295.

Consider G17C G54A, for which the self-cleavage was found to be 0.262.

Regarding C19U G25U, the self-cleavage was 0.188.

G39A C86A: the self-cleavage stood at 0.53.

A43U A70C: the self-cleavage came to 0.554.

As for G34A A70U, the self-cleavage is 0.132.

As to A71G A87C, the self-cleavage is 1.03.

In the case of G6A G82C, the self-cleavage was 0.

For G11A A83U, the self-cleavage is 0.203.

As for G1C U46G, the self-cleavage turned out to be 0.119.

As for G5C G54C, the self-cleavage stood at 0.158.

Take C18U C21U: the self-cleavage was determined as 0.0911.

On to C7G C58U, for which the self-cleavage was 0.492.

For the variant A16C C75G, the self-cleavage was found to be 0.268.

Regarding C13G C61U, the self-cleavage is 0.148.

As for C18A G40A, the self-cleavage turned out to be 0.0426.

Regarding G6C G76C, the self-cleavage was found to be 0.364.

As to U23C C84U, the self-cleavage stood at 0.831.

Take U72A C75A: the self-cleavage amounted to 0.222.

As to G10A U20G, the self-cleavage is 0.0791.

Take C24A C85A: the self-cleavage was 0.591.

Turning to C64G C85U, the self-cleavage stood at 1.17.

For the variant G34A C58G, the self-cleavage is 0.177.

As for C33G G76U, the self-cleavage worked out at 0.116.

C13U G53C: the self-cleavage is 0.831.

Regarding C7U A8U, the self-cleavage stood at 0.831.

For the variant U12A C13U, the self-cleavage is 0.0978.

Take G17C G35C: the self-cleavage amounted to 0.0437.

Consider A78G G80U, for which the self-cleavage was 0.12.

On to A42C C64G, for which the self-cleavage stood at 0.277.

In the case of A51G G81C, the self-cleavage is 0.266.

Regarding C24A C57G, the self-cleavage is 0.869.

Consider C4A G73C, for which the self-cleavage turned out to be 0.0426.

Regarding G29U C30A, the self-cleavage was found to be 0.155.

Regarding U9C G34C, the self-cleavage is 0.361.

As for C18G C41U, the self-cleavage came to 0.161.

Regarding U9G C36G, the self-cleavage worked out at 0.115.

Take C24U A42C: the self-cleavage worked out at 0.125.

As to C21A G50U, the self-cleavage is 0.0332.

Take G50C G55A: the self-cleavage came to 0.959.

With G1A U60G, the self-cleavage is 0.302.

C57A G67A: the self-cleavage was 0.926.

Take C14G G50C: the self-cleavage worked out at 0.302.

On to C66G C85A, for which the self-cleavage came out at 1.02.

Consider A45G U69G, for which the self-cleavage is 1.21.

Consider G28C U65G, for which the self-cleavage stood at 0.0665.

G2A C57U: the self-cleavage came out at 0.203.

With G11U U20A, the self-cleavage is 0.0252.

As to U9G A43C, the self-cleavage came out at 0.415.

As for G68A C86G, the self-cleavage amounted to 1.07.

As for C18U C22U, the self-cleavage worked out at 0.121.

As for U20G G68A, the self-cleavage turned out to be 0.0378.

Regarding A70G U79C, the self-cleavage was 0.365.

On to C41G U46G, for which the self-cleavage was 0.231.

As to U46A G52U, the self-cleavage was 0.596.

For C3A A71U, the self-cleavage was 0.385.

As to C32U G34U, the self-cleavage is 0.215.

Consider C14A U60C, for which the self-cleavage worked out at 0.485.

Turning to G25C G53C, the self-cleavage stood at 0.356.

With U20G U23C, the self-cleavage worked out at 0.

Turning to U9G A71U, the self-cleavage came out at 1.13.

As to U12C G68A, the self-cleavage stood at 0.231.

For the variant C22G C33G, the self-cleavage worked out at 0.

Turning to C3G G35A, the self-cleavage was 1.08.

For U23C A87C, the self-cleavage stood at 0.929.

For the variant C41G A42C, the self-cleavage was found to be 0.353.

For G59A, the self-cleavage came to 1.02.

As for C32G C57A, the self-cleavage came to 0.106.

For C57G, the self-cleavage worked out at 1.02.

As to G81C C85U, the self-cleavage came to 0.244.

With A51C C57A, the self-cleavage came to 1.02.

In the case of C33G A70G, the self-cleavage stood at 0.104.

Take A43G C58U: the self-cleavage was 0.415.

A77C G82C: the self-cleavage was determined as 0.116.

On to G31C C62A, for which the self-cleavage turned out to be 0.181.

As for C19A C36G, the self-cleavage turned out to be 0.0923.

In the case of C24G A78U, the self-cleavage turned out to be 0.

With C19U G73C, the self-cleavage is 0.0479.

With C18A C63G, the self-cleavage is 0.0791.

Take C32U A43G: the self-cleavage was determined as 0.63.

As to C36G U37A, the self-cleavage worked out at 0.446.

Consider C4G C32A, for which the self-cleavage was determined as 0.0692.

In the case of C13A A45U, the self-cleavage amounted to 0.128.

Regarding G29C U72C, the self-cleavage was 0.

With G82U C84G, the self-cleavage was 0.249.

As for G28U C61A, the self-cleavage came out at 0.201.

In the case of G29U A87G, the self-cleavage was 0.0585.

With C7G C14G, the self-cleavage is 0.

As to G6A C58A, the self-cleavage turned out to be 0.724.

For C7A C84U, the self-cleavage was 0.366.

As for C13U G74U, the self-cleavage is 0.0852.

As to G38A G74C, the self-cleavage was 0.161.

Consider C21A G38C, for which the self-cleavage amounted to 0.185.

Consider A56U G73A, for which the self-cleavage worked out at 0.752.

Regarding G34C C63U, the self-cleavage stood at 0.287.

As to C3U G50U, the self-cleavage was found to be 0.728.

With U47A C57U, the self-cleavage stood at 0.944.

Take A16U U47C: the self-cleavage stood at 0.72.

With G34A G59C, the self-cleavage was 0.225.

G55U G67C: the self-cleavage is 1.06.

On to U72C G81U, for which the self-cleavage is 0.148.

Turning to C24G A45U, the self-cleavage was determined as 0.0504.

Turning to G29C G40A, the self-cleavage is 0.0804.

As for C24G C62A, the self-cleavage was 0.0272.

For G11U U37G, the self-cleavage was 0.

On to G29C C33U, for which the self-cleavage turned out to be 0.0941.

As for G38C U69C, the self-cleavage amounted to 0.18.

As for C19A G39A, the self-cleavage amounted to 0.114.

In the case of C63U U65C, the self-cleavage worked out at 1.14.

Turning to G5C C44G, the self-cleavage came to 0.

C24A G80U: the self-cleavage stood at 0.198.

With C49G A71U, the self-cleavage came out at 1.04.

Consider C62U U65C, for which the self-cleavage worked out at 0.988.

With A70U G74A, the self-cleavage came out at 0.358.
